In US10603364B2, “Lysosomal targeting and uses thereof” (Shire Human Genetic Therapies, Inc., priority 2014, dated 2020):

Experiments:
[1] = tested on: wild-type rats; test: Naglu enzyme activity in liver and brain after intrathecal administration (biodistribution); format: in vivo; settings: 385 ug/animal
Protocol: To evaluate biodistribution of the SORT1-binding Naglu fusion proteins, an in vivo study was conducted using wild-type rats subjected to intrathecal administration of vehicle control (PBS), rhNaglu, Naglu-IGFII, Naglu-SPP, Naglu-SapDC or Naglu-tPRGN. Details of the experimental design are provide in Table 9 below. Previous experiments had shown that Naglu-IGFII but not rhNaglu penetrates into brain tissue and is targeted to lysosomes after intrathecal injection. Accordingly, rhNaglu and Naglu-IGFII were utilized in this study as negative and positive controls, respectively.
Rats were sacrificed either 4 or 24 hours post intrathecal administration of the respective fusion protein and total Naglu enzyme activity in the animals' liver and brain tissue was determined using a well-established enzyme activity assay (FIGS. 7A and B). Briefly, brain and liver tissue homogenates were prepared and incubated in the presence of a Naglu specific substrate, i.e., methylumbelliferyl-N-acetyl-α-D-glucosainide; accumulation of cleavage product was then measured by examining fluorescence intensity at 360/460 nm (excitation/emission) using a fluorescent plate reader.

[2] = tested on: Naglu KO mice; test: Sanfillipo B specific biomarkers in brain by LC/MS; format: in vivo; settings: intrathecal, 520 mg/kg brain, especially 2× weekly and 3× weekly
Protocol: (§1) To evaluate the in vivo activity of Naglu-SPP and its efficacy as a therapeutic for the treatment of lysosomal storage diseases, particularly San B, Naglu-SPP was administered to Naglu KO mice via intrathecal injection. Intrathecal administration of Naglu-IGFII served as a positive control. The experimental conditions used for this assay are described in Tables 10 and 11 below.
Using the same LC/MS technology as used for the quantification of heparin sulfate (see above), the presence of Sanfillipo B specific biomarkers in brains of treated KO mice were evaluated. Naglu deficiency causes the accumulation of certain heparin sulfate degradation products (presented in FIGS. 13A-C) which are natural substrates of Naglu. These biomarkers are the most relevant indications for Naglu deficiency.

[3] = molecular target: T1, recombinant 6×Histidine tagged human SORT1 (Homo sapiens, UniProt Q99523); test: Surface plasmone resonance binding of Naglu-SPP to SORT1
T1 sequence (Q99523 78-831): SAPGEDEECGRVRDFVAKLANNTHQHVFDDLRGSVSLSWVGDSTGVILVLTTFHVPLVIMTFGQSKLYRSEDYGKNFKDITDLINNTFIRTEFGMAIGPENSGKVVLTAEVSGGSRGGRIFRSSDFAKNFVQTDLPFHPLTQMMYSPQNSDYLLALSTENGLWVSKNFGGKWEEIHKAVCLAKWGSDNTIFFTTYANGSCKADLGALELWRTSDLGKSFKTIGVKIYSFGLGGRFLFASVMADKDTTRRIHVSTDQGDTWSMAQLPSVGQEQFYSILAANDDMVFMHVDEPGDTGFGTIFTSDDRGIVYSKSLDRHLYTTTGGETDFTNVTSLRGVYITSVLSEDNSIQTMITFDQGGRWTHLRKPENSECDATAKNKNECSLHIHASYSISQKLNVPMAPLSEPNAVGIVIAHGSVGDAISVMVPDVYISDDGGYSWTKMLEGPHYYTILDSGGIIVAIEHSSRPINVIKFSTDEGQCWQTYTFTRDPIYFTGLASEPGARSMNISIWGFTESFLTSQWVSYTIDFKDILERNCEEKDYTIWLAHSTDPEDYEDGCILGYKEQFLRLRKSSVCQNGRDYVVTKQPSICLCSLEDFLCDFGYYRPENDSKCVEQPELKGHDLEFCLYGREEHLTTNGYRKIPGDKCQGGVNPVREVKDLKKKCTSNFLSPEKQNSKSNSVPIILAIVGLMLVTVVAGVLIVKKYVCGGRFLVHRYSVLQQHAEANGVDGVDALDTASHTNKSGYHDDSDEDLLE
Protocol: Studies were also carried out to determine the binding properties of Naglu-SPP and evaluate its specificity for SORT1 by surface plasmone resonance (SPR), a commonly used standard technique. Briefly, anti-His mAb (capturing molecule) was diluted in immobilization buffer and bound on the dextran surface of a SPR sensor chip housed in a microfluidic system. Next, a solution containing recombinant 6×Histidine tagged human SORT1 (ligand) was injected into the microflow system and run over the surface-bound anti-His mAbs to form a “capture complex.” A solution containing purified Naglu-SPP protein (analyte) was then injected into the device. As the solution moved over the SPR sensor chip, the analyte bound to the capture complex and an increase in SPR signal (expressed in response units, RU) was observed. Finally, a solution without analyte was injected into the microfluidic device to detach bound […] from the capture complex, resulting in a decrease in SPR signal. The detailed experimental conditions are described in Table 6 below.

[4] = tested on: Naglu KO mice; test: Naglu enzyme activity in tissues of Naglu KO mice after intrathecal administration; format: in vivo; settings: 520 mg/kg brain, 24 hrs post final dose
Protocol: as §1
24 hours after intrathecal administration of each respective fusion protein, Naglu KO mice were sacrificed and Naglu enzyme activity in various tissues was assayed. Total Naglu activity was evaluated using a well-established enzyme activity assay. Briefly, tissue homogenate was incubated in the presence of the Naglu specific substrate methylumbelliferyl-N-acetyl-α-D-glucosainide, and accumulation of cleavage product was measured by examining fluorescence intensity at 360/460 nm (excitation/emission) using a fluorescent plate reader. […] This increase in enzyme activity was observed over the duration of the 3 week treatment period.

B1: Naglu-SPP: Fusion protein of human Naglu and SORT1 propeptide (SPP) via GAG3 linker; SEQ ID NO:17 (full-length), SEQ ID NO:22 (protein)
chain: MEAVAVAAAVGVLLLAGAGGAAGDEAREAAAVRALVARLLGPGPAADFSVSVERALAAKPGLDTYSLGGGGAARVRVRGSTGVAAAAGLHRYLRDFCGCHVAWSGSQLRLPRPLPAVPGELTEATPNRYRYYQNVCTQSYSFVWWDWARWEREIDWMALNGINLALAWSGQEAIWQRVYLALGLTQAEINEFFTGPAFLAWGRMGNLHTWDGPLPPSWHIKQLYLQHRVLDQMRSFGMTPVLPAFAGHVPEAVTRVFPQVNVTKMGSWGHFNCSYSCSFLLAPEDPIFPIIGSLFLRELIKEFGTDHIYGADTFNEMQPPSSEPSYLAAATTAVYEAMTAVDTEAVWLLQGWLFQHQPQFWGPAQIRAVLGAVPRGRLLVLDLFAESQPVYTRTASFQGQPFIWCMLHNFGGNHGLFGALEAVNGGPEAARLFPNSTMVGTGMAPEGISQNEVVYSLMAELGWRKDPVPDLAAWVTSFAARRYGVSHPDAGAAWRLLLRSVYNCSGEACRGHNRSPLVRRPSLQMNTSIWYNRSDVFEAWRLLLTSAPSLATSPAFRYDLLDLTRQAVQELVSLYYEEARSAYLSKELASLLRAGGVLAYELLPALDEVLASDSRFLLGSWLEQARAAAVSEAEADFYEQNSRYQLTLWGPEGNILDYANKQLAGLVANYYTPRWRLFLEALVDSVAQGIPFQQHQFDKNVFQLEQAFVLSKQRYPSQPRGDTVDLAKKIFLKYYPRWVAGSWGAPGGGGGAAAAAGGGGGGAPGGGGGAAAAAGGGGGGAPGGGGGAAAAAGGGGGGAPQDRLDAPPPPAAPLPRWSGPIGVSWGLRAAAAGGAFPRGGRWRR
- rank of Naglu enzyme activity in brain among treatments [1]: highest activity
- Naglu enzyme activity in brain ([1]; 4 or 24 hours post dose): markedly elevated levels
- accumulation of three GAG cleavage products (San B biomarkers) in brain [2]: dramatic decrease
- average association constant (Ka) ([3]; SPR, Naglu-SPP 0 to 20 nM): approximately 1.1×10^6 1/Ms
- dissociation constant (Kd) ([3]; SPR, Naglu-SPP 0 to 20 nM): approximately 7.1×10^−4 1/s
- binding to SORT1 ([3]; all concentrations tested (0 to 20 nM)): strong binding
- Naglu activity in liver and brain tissue vs vehicle control [4]: dramatic increase
